For data set [1], the target named is PSA (UniProt P07288 25-261). The experiment in a line: electrochemistry (on-chip bead-bound aptamer); 1 mg/mL; no significant signal (<15%); Buffer C: 100 mM Tris-HCl pH 7.4, 100 mM NaCl, 1 mM MgCl2, 5 mM KCl; room temperature (optimized conditions stated as pH 7.5, 100 mM salt). Conditions: protein: commercial; label: 5'-ferrocene; 3'-biotin (on streptavidin magnetic beads); hairpin.

The target in data set [2] is IL-6 (UniProt P05231 30-212). The experiment in a line: electrochemistry (on-chip bead-bound aptamer); 1 ng/mL; no significant signal (<15%); Buffer C: 100 mM Tris-HCl pH 7.4, 100 mM NaCl, 1 mM MgCl2, 5 mM KCl; room temperature (optimized conditions stated as pH 7.5, 100 mM salt). The following applies: protein: commercial; label: 5'-ferrocene; 3'-biotin (on streptavidin magnetic beads); hairpin.

In data set [3] the target is TNF-α (UniProt P01375 77-233). The description is as above. The following applies: protein: commercial; chain copies: 3; label: 5'-ferrocene; 3'-biotin (on streptavidin magnetic beads); hairpin.
Data set [4] deals with interferon gamma (IFN-γ) (human, UniProt P01579 24-166). The experiment in a line: electrochemistry (SWV, on-chip bead-bound aptamer); 1 mM Mg2+, 5 mM K+; from calibration-curve midpoint (100 pg/mL) (so in the source); Buffer C: 100 mM Tris-HCl pH 7.4, 100 mM NaCl, 1 mM MgCl2, 5 mM KCl; room temperature (optimized conditions stated as pH 7.5, 100 mM salt). The following applies: protein: recombinant; chain copies: 2; label: 5'-ferrocene; 3'-biotin (on streptavidin magnetic beads); hairpin.

The values below come from paper PMC6799845, “On-chip structure-switching aptamer-modified magnetic nanobeads for the continuous monitoring of interferon-gamma ex vivo”.

Sequence of IL-6 (P05231 30-212): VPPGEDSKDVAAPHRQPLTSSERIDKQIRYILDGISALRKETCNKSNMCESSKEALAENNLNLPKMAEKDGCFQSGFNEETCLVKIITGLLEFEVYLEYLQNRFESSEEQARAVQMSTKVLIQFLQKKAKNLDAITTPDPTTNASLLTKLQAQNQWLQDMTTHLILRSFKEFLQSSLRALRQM
Sequence of PSA (P07288 25-261): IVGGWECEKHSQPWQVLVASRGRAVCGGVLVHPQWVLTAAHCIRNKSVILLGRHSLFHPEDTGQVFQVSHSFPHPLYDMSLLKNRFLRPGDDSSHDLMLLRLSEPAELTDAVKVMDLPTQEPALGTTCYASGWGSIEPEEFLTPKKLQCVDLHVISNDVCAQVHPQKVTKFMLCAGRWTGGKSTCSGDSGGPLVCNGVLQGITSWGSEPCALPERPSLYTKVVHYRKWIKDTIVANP
Sequence of interferon gamma (IFN-γ) (P01579 24-166): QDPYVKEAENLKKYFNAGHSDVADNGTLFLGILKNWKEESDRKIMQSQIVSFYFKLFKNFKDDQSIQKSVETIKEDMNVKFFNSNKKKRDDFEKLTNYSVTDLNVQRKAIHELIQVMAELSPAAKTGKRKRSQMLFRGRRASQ
Sequence of TNF-α (P01375 77-233): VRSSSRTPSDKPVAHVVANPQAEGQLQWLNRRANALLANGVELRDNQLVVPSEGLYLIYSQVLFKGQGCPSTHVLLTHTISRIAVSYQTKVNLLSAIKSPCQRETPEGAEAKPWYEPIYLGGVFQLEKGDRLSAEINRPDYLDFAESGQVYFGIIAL

For the molecule GGGGTTGGTTGTGTTGGGTGTTGTGTCCAACCCC (structured_DNA) [Fc-labeled IFN-γ hairpin aptamer (MB-aptamer)], the binding result in data set [1], in data set [2] and in data set [3] was “no binding” each time. The Ka in data set [4] is around 2.1e+10 M⁻¹.
